Source: patent US20160024487

Tests used:
[1] = system: T1, Lys(Dnp)-ATNATX4X3PRIVGG-Lys(Abz), X4 = H, X3 = G
T1 sequence: KATNATHGPRIVGGK

[2] = system: T2, Lys(Dnp)-ATNATX4X3PRIVGG-Lys(Abz), X4 = T, X3 = N
T2 sequence: KATNATTNPRIVGGK

[3] = system: T3, Lys(Dnp)-ATNATX4X3PRIVGG-Lys(Abz), X4 = H, X3 = T
T3 sequence: KATNATHTPRIVGGK

[4] = system: T4, Lys(Dnp)-ATNATX4X3PRIVGG-Lys(Abz), X4 = Y, X3 = I
T4 sequence: KATNATYIPRIVGGK

[5] = system: T5, Lys(Dnp)-ATNATX4X3PRIVGG-Lys(Abz), X4 = G, X3 = V
T5 sequence: KATNATGVPRIVGGK

[6] = system: T6, Lys(Dnp)-ATNATX4X3PRIVGG-Lys(Abz), X4 = N, X3 = K
T6 sequence: KATNATNKPRIVGGK

[7] = system: T7, Lys(Dnp)-ATNATX4X3PRIVGG-Lys(Abz), X4 = Q, X3 = W
T7 sequence: KATNATQWPRIVGGK

Work on Human plasma purified Factor Xa yielded an FXa kcat/KM [1] of 47 M⁻¹ s⁻¹, an FXa kcat/KM [2] of 13 M⁻¹ s⁻¹ and an FXa kcat/KM [3] of 50 M⁻¹ s⁻¹. It also gave an FXa kcat/KM [4] of 66 M⁻¹ s⁻¹, an FXa kcat/KM [5] of 40 M⁻¹ s⁻¹ and an FXa kcat/KM [6] of 14 M⁻¹ s⁻¹. For the same substance, the FXa kcat/KM [7] was 1400 M⁻¹ s⁻¹.
